Positions count from the first letter of the chain named. Names may count otherwise.
B1: GLS3000 R24G one-arm antibody (H chain CE115HA000) (antibody, human IgG1, kappa, L234A L235A, N297A, name in Kabat numbering)
heavy: QVQLVESGGGVVQPGRSLRLSCAASGFTFSNAWMHWVRQAPGKGLEWVAQIKAKSNNYATYYAESVKGRFTISRDDSKNSLYLQMNSLKTEDTAVYYCRYVHYGAYYGVDAWGQGTTVTVSSASTKGPSVFPLAPSSKSTSGGTAALGCLVKDYFPEPVTVSWNSGALTSGVHTFPAVLQSSGLYSLSSVVTVPSSSLGTQTYICNVNHKPSNTKVDKKVEPKSCDKTHTCPPCPAPEAAGGPSVFLFPPKPKDTLMISRTPEVTCVVVDVSHEDPEVKFNWYVDGVEVHNAKTKPREEQYASTYRVVSVLTVLHQDWLNGKEYKCKVSNKALPAPIEKTISKAKGQPREPQVYTLPPSRCELTKNQVSLSCAVKGFYPSDIAVEWESNGQPENNYKTTPPVLDSDGSFFLVSKLTVDKSRWQQGNVFSCSVMHEALHNHYTQKSLSLSPDYKDDDDK
chain: EPKSSDKTHTCPPCPAPELLGGPSVFLFPPKPKDTLMISRTPEVTCVVVDVSHEDPEVKFNWYVDGVEVHNAKTKPREEQYNSTYRVVSVLTVLHQDWLNGKEYKCKVSNKALPAPIEKTISKAKGQPREPQVCTLPPSRDELTKNQVSLWCLVKGFYPSDIAVEWESNGQPENNYKTTPPVLDSDGSFFLYSKLTVDKSRWQQGNVFSCSVMHEALHNRYTQKSLSLSP
light: DIVMTQSPLSLPVTPGEPASISCGSSQSLVHSNRNTYLHWYQQKPGQAPRLLIYKVSNRFSGVPDRFSGSGSGTDFTLKISRVEAEDVGVYYCGQGTQVPYTFGQGTKLEIKRTVAAPSVFIFPPSDEQLKSGTASVVCLLNNFYPREAKVQWKVDNALQSGNSQESVTEQDSKDSTYSLSSTLTLSKADYEKHKVYACEVTHQGLSSPVTKSFNRGEC
notes: one-arm antibody
B2: GLS3000 S25A one-arm antibody (H chain CE115HA000) (antibody, human IgG1, kappa, L234A L235A, N297A, name in Kabat numbering)
heavy: B1 heavy
chain: B1 chain
light: B1 light with G24R, S25A
notes: one-arm antibody
B3: GLS3000 R24S one-arm antibody (H chain CE115HA000) (antibody, human IgG1, kappa, L234A L235A, N297A, name in Kabat numbering)
heavy: B1 heavy
chain: B1 chain
light: B1 light with G24S
notes: one-arm antibody
B4: GLS3000 R29S one-arm antibody (H chain CE115HA000) (antibody, human IgG1, kappa, L234A L235A, N297A, name in Kabat numbering)
heavy: B1 heavy
chain: B1 chain
light: B1 light with G24R, R34S
notes: one-arm antibody
B5: GLS3000 R24T one-arm antibody (H chain CE115HA000) (antibody, human IgG1, kappa, L234A L235A, N297A, name in Kabat numbering)
heavy: B1 heavy
chain: B1 chain
light: B1 light with G24T
notes: one-arm antibody
B6: GLS3000 S25V one-arm antibody (H chain CE115HA000) (antibody, human IgG1, kappa, L234A L235A, N297A, name in Kabat numbering)
heavy: B1 heavy
chain: B1 chain
light: B1 light with G24R, S25V
notes: one-arm antibody
B7: GLS3000 R29D one-arm antibody (H chain CE115HA000) (antibody, human IgG1, kappa, L234A L235A, N297A, name in Kabat numbering)
heavy: B1 heavy
chain: B1 chain
light: B1 light with G24R, R34D
notes: one-arm antibody
B8: GLS3000 R29T one-arm antibody (H chain CE115HA000) (antibody, human IgG1, kappa, L234A L235A, N297A, name in Kabat numbering)
heavy: B1 heavy
chain: B1 chain
light: B1 light with G24R, R34T
notes: one-arm antibody
B9: GLS3000 S25E one-arm antibody (H chain CE115HA000) (antibody, human IgG1, kappa, L234A L235A, N297A, name in Kabat numbering)
heavy: B1 heavy
chain: B1 chain
light: B1 light with G24R, S25E
notes: one-arm antibody
B10: GLS3000 R29L one-arm antibody (H chain CE115HA000) (antibody, human IgG1, kappa, L234A L235A, N297A, name in Kabat numbering)
heavy: B1 heavy
chain: B1 chain
light: B1 light with G24R, R34L
notes: one-arm antibody
B11: GLS3000 R29A one-arm antibody (H chain CE115HA000) (antibody, human IgG1, kappa, L234A L235A, N297A, name in Kabat numbering)
heavy: B1 heavy
chain: B1 chain
light: B1 light with G24R, R34A
notes: one-arm antibody
B12: GLS3000 R29I one-arm antibody (H chain CE115HA000) (antibody, human IgG1, kappa, L234A L235A, N297A, name in Kabat numbering)
heavy: B1 heavy
chain: B1 chain
light: B1 light with G24R, R34I
notes: one-arm antibody
B13: GLS3000 S25P one-arm antibody (H chain CE115HA000) (antibody, human IgG1, kappa, L234A L235A, N297A, name in Kabat numbering)
heavy: B1 heavy
chain: B1 chain
light: B1 light with G24R, S25P
notes: one-arm antibody
B14: GLS3000 R24Q one-arm antibody (H chain CE115HA000) (antibody, human IgG1, kappa, L234A L235A, N297A, name in Kabat numbering)
heavy: B1 heavy
chain: B1 chain
light: B1 light with G24Q
notes: one-arm antibody
B15: GLS3000 R24P one-arm antibody (H chain CE115HA000) (antibody, human IgG1, kappa, L234A L235A, N297A, name in Kabat numbering)
heavy: B1 heavy
chain: B1 chain
light: B1 light with G24P
notes: one-arm antibody
B16: GLS3000 R24Y one-arm antibody (H chain CE115HA000) (antibody, human IgG1, kappa, L234A L235A, N297A, name in Kabat numbering)
heavy: B1 heavy
chain: B1 chain
light: B1 light with G24Y
notes: one-arm antibody
B17: GLS3000 S26E one-arm antibody (H chain CE115HA000) (antibody, human IgG1, kappa, L234A L235A, N297A, name in Kabat numbering)
heavy: B1 heavy
chain: B1 chain
light: B1 light with G24R, S26E
notes: one-arm antibody
B18: GLS3000 S25I one-arm antibody (H chain CE115HA000) (antibody, human IgG1, kappa, L234A L235A, N297A, name in Kabat numbering)
heavy: B1 heavy
chain: B1 chain
light: B1 light with G24R, S25I
notes: one-arm antibody
B19: GLS3000 S26D one-arm antibody (H chain CE115HA000) (antibody, human IgG1, kappa, L234A L235A, N297A, name in Kabat numbering)
heavy: B1 heavy
chain: B1 chain
light: B1 light with G24R, S26D
notes: one-arm antibody
B20: GLS3000 R29G one-arm antibody (H chain CE115HA000) (antibody, human IgG1, kappa, L234A L235A, N297A, name in Kabat numbering)
heavy: B1 heavy
chain: B1 chain
light: B1 light with G24R, R34G
notes: one-arm antibody
B21: GLS3000 S26P one-arm antibody (H chain CE115HA000) (antibody, human IgG1, kappa, L234A L235A, N297A, name in Kabat numbering)
heavy: B1 heavy
chain: B1 chain
light: B1 light with G24R, S26P
notes: one-arm antibody
B22: GLS3000 S25M one-arm antibody (H chain CE115HA000) (antibody, human IgG1, kappa, L234A L235A, N297A, name in Kabat numbering)
heavy: B1 heavy
chain: B1 chain
light: B1 light with G24R, S25M
notes: one-arm antibody
B23: GLS3000 S25D one-arm antibody (H chain CE115HA000) (antibody, human IgG1, kappa, L234A L235A, N297A, name in Kabat numbering)
heavy: B1 heavy
chain: B1 chain
light: B1 light with G24R, S25D
notes: one-arm antibody
B24: GLS3000 R29P one-arm antibody (H chain CE115HA000) (antibody, human IgG1, kappa, L234A L235A, N297A, name in Kabat numbering)
heavy: B1 heavy
chain: B1 chain
light: B1 light with G24R, R34P
notes: one-arm antibody
B25: GLS3000 R54D one-arm antibody (H chain CE115HA000) (antibody, human IgG1, kappa, L234A L235A, N297A, name in Kabat numbering)
heavy: B1 heavy
chain: B1 chain
light: B1 light with G24R, R59D
notes: one-arm antibody
B26: GLS3000 S25L one-arm antibody (H chain CE115HA000) (antibody, human IgG1, kappa, L234A L235A, N297A, name in Kabat numbering)
heavy: B1 heavy
chain: B1 chain
light: B1 light with G24R, S25L
notes: one-arm antibody
B27: GLS3000 R54A one-arm antibody (H chain CE115HA000) (antibody, human IgG1, kappa, L234A L235A, N297A, name in Kabat numbering)
heavy: B1 heavy
chain: B1 chain
light: B1 light with G24R, R59A
notes: one-arm antibody
B28: GLS3000 S27aD one-arm antibody (H chain CE115HA000) (antibody, human IgG1, kappa, L234A L235A, N297A, name in Kabat numbering)
heavy: B1 heavy
chain: B1 chain
light: B1 light with G24R, S28D
notes: one-arm antibody
B29: GLS3000 S25T one-arm antibody (H chain CE115HA000) (antibody, human IgG1, kappa, L234A L235A, N297A, name in Kabat numbering)
heavy: B1 heavy
chain: B1 chain
light: B1 light with G24R, S25T
notes: one-arm antibody
B30: GLS3000 R29V one-arm antibody (H chain CE115HA000) (antibody, human IgG1, kappa, L234A L235A, N297A, name in Kabat numbering)
heavy: B1 heavy
chain: B1 chain
light: B1 light with G24R, R34V
notes: one-arm antibody
B31: GLS3000 R29Y one-arm antibody (H chain CE115HA000) (antibody, human IgG1, kappa, L234A L235A, N297A, name in Kabat numbering)
heavy: B1 heavy
chain: B1 chain
light: B1 light with G24R, R34Y
notes: one-arm antibody

Each binder was assayed against T1, CD3 epsilon homodimer protein (UniProt P07766 23-126) (assay: SPR, CD3e homodimer on chip;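 note: surface plasmon resonance at 25 degrees C, antibodies flowed as analyte over CD3 epsilon homodimer amine-coupled to a CM4 chip, running buffer HBS-EP+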).
T1 construct: also called CD3 (CD3 epsilon)
T1 sequence (P07766 23-126): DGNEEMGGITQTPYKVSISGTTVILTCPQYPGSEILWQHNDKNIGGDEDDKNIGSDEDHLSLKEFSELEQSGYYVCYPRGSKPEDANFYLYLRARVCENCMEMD
Experimental: An appropriate amount of CD3 epsilon homodimer protein was immobilized onto Sensor chip CM4 (GE Healthcare Japan Corp.) by the amine coupling method. Then, the antibody having an appropriate concentration was injected thereto as an analyte and allowed to interact with the CD3 epsilon homodimer protein on the sensor chip. Then, the sensor chip was regenerated by the injection of 10 mmol/L glycine-HCl (pH 1.5). The assay was conducted at 25 degrees C., and HBS-EP+(GE Healthcare Japan Corp.) was used as a running buffer. […] Each parameter was calculated using Biacore T200 Evaluation Software (GE Healthcare Japan Corp.).
Specifically, when the amount of the GLS3000-containing antibody bound was defined as X and the amount of the L chain one-amino acid altered form bound was defined as Y, a value of Z (ratio of amounts bound)=Y/X was used.

ratio of amounts bound (altered form / unaltered GLS3000 antibody) | Binder
0.89 | B1
0.92 | B2
0.89 | B3
0.68 | B4
0.88 | B5
0.73 | B6
0.41 | B7
0.63 | B8
0.21 | B9
0.56 | B10
0.63 | B11
0.37 | B12
1.01 | B13
0.9 | B14
0.7 | B15
0.87 | B16

ratio of amounts bound (altered form / unaltered GLS3000 antibody) | Binder
0.74 | B17
0.53 | B18
0.86 | B19
0.67 | B20
0.78 | B21
0.31 | B22
0.18 | B23
0.31 | B24
0.36 | B25
0.24 | B26
0.69 | B27
0.79 | B28
0.83 | B29
0.34 | B30
0.69 | B31
